Target: F-actin (skeletal muscle actin) (Oryctolagus cuniculus, UniProt P68135)
Assay: high-speed co-sedimentation

B1: TRIOBP-4 isoform 4 (protein)
chain: MSMEQDTRALLPTQGTAWATASAPVARLQGPQGDSHQACSQEPHSPSSAEAPYCDLPRCPPALQNPLRTTTCVGQSVHSLGLGLGQEPQRVWSPTTALPAEGPAAAPKNRHQDSEGIPYLEGLARSSCTDDNDNKDEDEDPNSNTSSSQDSNTPHDTSNSSSVDWDTTERPGVVPSRNRLTEMIPRRPQEGLRADSARKATRSPARGDTAGQRKENSGSGGQSAGQHWAKLRSESGYFSLERQRSGQTQASSGTPPSGPRGTTQASSAQRDVFQAAPAQEAPQTSSLPRNTQRDTQRSTPRTSSPSRVSQRDTPRVMSTQRKNTPLSSPLRATPETLKISAPEDGTHVTPSPCVQDSSLNRTSQRDSSRTPCIQWDNPRASSPNRTTQRDNPRTPCTQRDNPRASSPNRTTQRDNPRTPCTQRDNPRASSPNRTTQRDNPRTPCAQRDNPRAASPNRSTQRDSPRTPCAQRDNPRASSPNRTAQRDNPRTPCAQRDNPRTSCTSQNTPRTPSTQADKTTASCSKWEHLRSACTQRDNPRTFSQGCTQKDNPGPPSPRRATQGSNSRNPSPHRTNKDIPWASFPLRPTQSDSPRTSSPSRTKQNQVPWASISLRPTQGDKPQTSAPTRLAHNDPPQQYSPSLATTSSSSHNPGHSSASRTSSPLHAAPRGAPQTSLESSQPPCTVCIGHRDAPRASSPPRYFQYDPFPFFPDPRSSESESPHHEPPYMPPAVCIGHRDAPRATSPPRHTQFDPFPFLPDTSDADNESPQHDPPQFPPPVCIGYRDAPRASSPPRQFPEPSFFQDLPRASTESLVPSTDSMHEPPHIPTPVCIGHRDAPSFSSPPRQAPEPSLFFQDPPGTSMESLAPSIDSLHGCPLLPPQVCIGHRDAPRASSPPRHPPSDIGLLAPSPPPGSSGSRGSAPPGETRHNLEREEYTMLADLPPPRRLAQRGPEPQAQGSNEGRTRSPGRAEVERLFGQERRKSEAPGAFQTRDEGRSQRPSQAQSQLRRQSSPAP
modifications: N-terminal GFP and C-terminal FLAG fusion on TRIOBP-4, filamentous actin
Kd: 940 nM
